Assay [1] concerns the target CD40 (UniProt P25942). Nature of the assay: cell-based or functional assay.
Assay [2] deals with CD40L (UniProt P29965). Briefly: cell-based or functional assay.

The record followed here is patent US20140286975A1.

Chain of UniProt P25942 (P25942 21-277 limits assumed): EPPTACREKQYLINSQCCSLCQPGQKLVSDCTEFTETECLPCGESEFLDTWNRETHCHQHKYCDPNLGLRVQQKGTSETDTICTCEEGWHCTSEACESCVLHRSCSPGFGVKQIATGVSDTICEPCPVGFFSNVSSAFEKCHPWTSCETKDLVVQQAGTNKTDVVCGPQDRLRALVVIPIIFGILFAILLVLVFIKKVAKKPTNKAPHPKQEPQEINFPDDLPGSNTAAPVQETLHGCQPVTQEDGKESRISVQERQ
Chain of UniProt P29965 (P29965 whole entry): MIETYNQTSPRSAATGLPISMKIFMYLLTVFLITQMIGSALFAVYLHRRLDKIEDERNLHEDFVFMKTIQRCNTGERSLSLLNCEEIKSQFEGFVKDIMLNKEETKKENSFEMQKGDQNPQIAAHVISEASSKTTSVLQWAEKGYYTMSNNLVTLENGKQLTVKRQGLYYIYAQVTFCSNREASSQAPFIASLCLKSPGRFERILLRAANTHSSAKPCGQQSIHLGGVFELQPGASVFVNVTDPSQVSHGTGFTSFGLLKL

With “antiCD40 clone 82111 (R&D Systems) (antibody)”, in assay [1], the IFN-γ ELISpots upon restimulation of T-cells primed by doubly-loaded DCs was 8 % increase; the IFN-γ ELISpots upon restimulation of T-cells primed by lysate-loaded DCs stood at 51 % increase; the IFN-γ ELISpots upon restimulation of T-cells primed by mRNA-loaded DCs came to 86 % increase; the IFN-γ ELISpots upon restimulation, self-antigen controls (fold increase) is 6.

In turn, “anti-CD40L clone 40804 (R&D Systems) (antibody)” gave an IFN-γ ELISpots upon recall, T-lymphocytes primed and restimulated by doubly-loaded dendritic cells in assay [2] of 68 % decrease.
